Experimental data taken from patent US20190194356A1 (CHANGZHOU BOJIA BIOTECHNOLOGY, published 2019).

Key:
[1] = molecular target: T1, mouse PCSK9 antigen (NCBI NM_153565.2) (mouse, UniProt Q80W65 35-694); assay: BLI (Octet Red 96), antibody on anti-human IgG Fc (AHC) biosensor, PCSK9 in solution, 1:1 model
T1 construct: also called msPCSK9
Procedure: (§1) The ability of PCSK9 mAbs to bind to human, mouse or cynomolgus PCSK9 was characterized using the Octet Red 96 system (ForteBio). A kinetic-grade biosensor (Fortebio, #18-5063) of anti-human IgG Fc (AHC) was immersed in assay buffer after glycine pretreatment at pH 1.7. The PCSK9 monoclonal antibody to be detected was immobilized to the AHC biosensor at a concentration of 10 μg/ml for 120 seconds. The AHC biosensor loaded with the PCSK9 monoclonal antibody was then immersed in human PCSK9 antigen (GeneBank AX127530.1), mouse PCSK9 antigen (NCBI NM_153565.2) or cynomolgus PCSK9 antigen (NCBI NM_001112660.1) of different concentrations and buffer. The final dilution point of the analyte column only contained the detection buffer to test the non-specific binding between the buffer and the loaded biosensor. Antigen-antibody binding was detected from 80 to 120 s, and dissociation was detected from 120 to 180 s. A 60 second baseline was determined with the assay buffer. The affinity curves for anti-PCSK9 monoclonal antibodies were fitted using a 1:1 binding kinetic sensing monovalent binding model.

[2] = molecular target: T2, human PCSK9 antigen (GeneBank AX127530.1) (human, UniProt Q8NBP7 31-692); assay: as above
T2 construct: also called huPCSK9; human PCSK9 protein
T2 sequence (Q8NBP7 31-692 limits assumed): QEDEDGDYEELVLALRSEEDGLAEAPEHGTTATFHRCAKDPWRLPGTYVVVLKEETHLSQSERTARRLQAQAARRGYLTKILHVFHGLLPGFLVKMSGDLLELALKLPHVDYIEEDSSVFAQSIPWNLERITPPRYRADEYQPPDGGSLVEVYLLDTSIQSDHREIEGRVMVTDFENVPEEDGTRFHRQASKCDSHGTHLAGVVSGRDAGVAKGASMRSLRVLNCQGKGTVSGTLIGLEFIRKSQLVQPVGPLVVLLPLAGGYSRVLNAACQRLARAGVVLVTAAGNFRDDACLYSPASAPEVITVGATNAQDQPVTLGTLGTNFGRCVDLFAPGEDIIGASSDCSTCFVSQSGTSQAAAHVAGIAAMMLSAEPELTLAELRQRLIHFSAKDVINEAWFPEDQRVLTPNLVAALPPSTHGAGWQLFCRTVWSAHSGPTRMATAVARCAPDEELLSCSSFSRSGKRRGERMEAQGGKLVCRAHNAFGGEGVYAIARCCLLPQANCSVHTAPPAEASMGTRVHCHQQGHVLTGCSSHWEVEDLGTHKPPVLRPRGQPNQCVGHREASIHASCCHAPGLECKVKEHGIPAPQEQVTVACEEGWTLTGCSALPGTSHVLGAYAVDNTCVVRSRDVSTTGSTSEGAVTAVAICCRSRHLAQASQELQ
Procedure: as §1

[3] = molecular target: T2, human PCSK9 antigen (GeneBank …); assay: cell-based or functional assay
[4] = molecular target: T2, human PCSK9 antigen (GeneBank …); assay: BLI (Octet Red 96), antibody on AHC biosensor, human PCSK9 in solution, 1:1 model
Procedure: as §1
The specific experimental procedures were shown in Example 4 and Example 5. As shown in FIG. 5 and Table 7, the affinity of the long half-life antibody 9M284QL to human PCSK9 protein was substantially identical to 9M284 because the Fab region (containing VH and VL) of the engineered antibody 9M284QL was not changed compared to 9M284. As the affinity was not changed, the long half-life Fc-modified PCSK9 antibody 9M284QL, 9M284YTE and the conventional half-life antibody 9M284 had similar EC50 in the comparative test of cellular LDL uptake experiment, as shown in FIG. 6 and Table 8.

[5] = molecular target: T2, human PCSK9 antigen (GeneBank …); assay: cell-based or functional assay; remark: listed apart in the source
[6] = molecular target: neonatal Fc receptor FcRn; assay: ELISA at pH 6.0, antibody coated at 10 µg/mL, His-tagged FcRn titrated, anti-His-Tag-HRP
Sequence of neonatal Fc receptor FcRn (P55899 24-297, chain 1 of 2): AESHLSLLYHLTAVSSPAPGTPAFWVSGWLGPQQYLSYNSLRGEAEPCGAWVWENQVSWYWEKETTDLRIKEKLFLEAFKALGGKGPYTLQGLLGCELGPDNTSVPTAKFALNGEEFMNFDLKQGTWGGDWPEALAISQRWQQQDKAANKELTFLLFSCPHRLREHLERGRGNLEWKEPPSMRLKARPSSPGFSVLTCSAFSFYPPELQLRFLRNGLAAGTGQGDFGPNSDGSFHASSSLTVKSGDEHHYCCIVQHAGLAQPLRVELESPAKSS
Sequence of neonatal Fc receptor FcRn (P61769 21-119, chain 2 of 2, further chain): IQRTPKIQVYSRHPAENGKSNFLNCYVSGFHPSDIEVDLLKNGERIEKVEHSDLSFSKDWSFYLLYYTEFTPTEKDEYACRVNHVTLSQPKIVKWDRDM
Procedure: (§2) The target antibody was diluted to 10 μg/mL with coating solution (15 mM Na₂CO₃, 35 mM NaHCO₃, pH 9.6), and then added to a 96-well ELISA plate at a dose of 100 μL/well and incubated at 4° C. overnight for coating. After coating, the sample wells were washed with PBST, pH 7.4 4 times, added with 300 μL/well of 4% skim milk (PBS, pH 7.4), and incubated at 25° C. for 2 hours for blocking. After blocking, the sample wells were washed 4 times with PBST, pH 7.4, added with 100 μL/well of FcRn diluted with 0.4% skim milk dissolved in PBST (pH 6.0/7.4, respectively) (initial concentration 20 μg/mL, 2-fold gradient dilution, with 11 concentration gradients in total), and incubated at 25° C. for 1.5 hours. After incubation, the sample wells were washed 4 times with PBST, pH 6.0/7.4, added with anti-His-Tag-HRP diluted in 0.4% skim milk (1/500) (pH 6.0/7.4, respectively), and incubated at 25° C. for 1 hour. After incubation, the sample wells were washed 4 times with PBST, pH 6.0/7.4, and added with 100 μL/well of TMB for development (development conditions: 25° C., 10 to 15 minutes). After development, 100 μL/well of 1 M […] was added to stop the development reaction, and the absorbance at 450 nm was read out (background correction was performed by the subtraction of the absorbance at 650 nm).

[7] = molecular target: T3, human PCSK9 mutant protein R218S (human, UniProt Q8NBP7 31-692); assay: BLI (Octet Red 96), antibody on AHC biosensor, PCSK9 mutant in solution
T3 construct: also called PCSK9 R218S protein
T3 sequence (Q8NBP7 31-692 R218S limits assumed): as the sequence (Q8NBP7 31-692 limits assumed) above, with R188S counted along it
Procedure: as §1
(§3) Human PCSK9 protein had different mutants. It was reported in the literature that there were many human PCSK9 mutants associated with hyperlipidemia. The inventors selected human PCSK9 mutant proteins of R218S, R306S, D374H, and D374Y among them, wherein the ability of PCSK9 mAbs of the invention in binding to different mutant PCSK9 proteins was characterized using the Octet Red 96 system (ForteBio) as described above. The kinetic analysis was shown in FIG. 7 and Table 9, except for R306S, the affinities of other human PCSK9 protein mutants to the PCSK9 monoclonal antibodies of the invention (normal IgG and long half-life IgG forms) were of the same order of magnitude as native human PCSK9 protein. Among them, the kon-binding ability of long half-life PCSK9 monoclonal antibody 9M284-QL to PCSK9 R218S protein was three times higher than that of 9M284 antibody.

[8] = molecular target: human PCSK9 mutant protein D374H (human, UniProt Q8NBP7 31-692); assay: as above
Sequence of human PCSK9 mutant protein D374H (Q8NBP7 31-692 D374H limits assumed): as the sequence (Q8NBP7 31-692 limits assumed) above, with D344H counted along it
Procedure: as §1, §3

[9] = molecular target: human PCSK9 mutant protein R306S (human, UniProt Q8NBP7 31-692); assay: as above
Sequence of human PCSK9 mutant protein R306S (Q8NBP7 31-692 R306S limits assumed): as the sequence (Q8NBP7 31-692 limits assumed) above, with R276S counted along it
Procedure: as §1, §3

[10] = molecular target: human PCSK9 mutant protein D374Y (human, UniProt Q8NBP7 31-692); assay: as above
Sequence of human PCSK9 mutant protein D374Y (Q8NBP7 31-692 D374Y limits assumed): as the sequence (Q8NBP7 31-692 limits assumed) above, with D344Y counted along it
Procedure: as §1, §3

[11] = molecular target: T3, human PCSK9 mutant protein R218S; assay: BLI (Octet Red 96); reference 9M284
Procedure: as §1
Human PCSK9 protein had different mutants. It was reported in the literature that there were many human PCSK9 mutants associated with hyperlipidemia. […]

[12] = molecular target: neonatal Fc receptor FcRn; assay: ELISA at pH 6.0, antibody coated, His-tagged FcRn titrated; reference 9M284
Procedure: as §2

T1 sequence (Q80W65 35-694 limits assumed): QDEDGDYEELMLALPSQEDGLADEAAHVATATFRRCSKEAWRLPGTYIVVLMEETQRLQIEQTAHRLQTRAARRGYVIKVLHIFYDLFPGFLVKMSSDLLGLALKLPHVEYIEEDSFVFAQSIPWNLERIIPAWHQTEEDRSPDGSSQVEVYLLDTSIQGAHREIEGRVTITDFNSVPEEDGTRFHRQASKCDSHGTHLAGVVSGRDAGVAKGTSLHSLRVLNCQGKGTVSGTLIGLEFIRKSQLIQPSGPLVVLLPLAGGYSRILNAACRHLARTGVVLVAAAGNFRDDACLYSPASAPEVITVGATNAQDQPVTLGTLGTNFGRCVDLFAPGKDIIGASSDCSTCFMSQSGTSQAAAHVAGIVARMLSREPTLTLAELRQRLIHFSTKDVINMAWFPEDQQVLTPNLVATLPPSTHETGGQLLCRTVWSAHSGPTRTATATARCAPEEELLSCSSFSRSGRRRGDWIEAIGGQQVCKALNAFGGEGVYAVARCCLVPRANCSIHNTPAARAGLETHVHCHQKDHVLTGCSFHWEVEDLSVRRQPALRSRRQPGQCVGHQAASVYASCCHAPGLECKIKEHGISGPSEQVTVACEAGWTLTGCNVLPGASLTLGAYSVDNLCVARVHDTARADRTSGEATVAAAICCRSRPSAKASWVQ

B1: monoclonal antibody 9M283 (antibody, human IgG2, lambda, V domains shown)
VH: QVQLVQSGAEVKKPGSSVKVSCKASAFTFDSFGMHWVRQAPGQGLEWMGLLWSDGSDEYYADSAKGRFTISRDNSKNTLYLQMNSLRSDDTAVYYCARALGAIYSYYAMDVWGQGTTVTVSS
VL: QSALTQPPSVSGSPGQSVTISCTGTSSNIGNQFVSWYQQLPGTAPKLMIYEYNKRPSGVPDRFSGSKSGNTASLTISGLQTGDEADYYCGSWDSSLSGYVFGTGTRVTVLG
notes: the claims call them variable regions; also called PCSK9 monoclonal antibody 9M283
Kd [1]: 14 nM
koff [1]: 0.0051 s⁻¹
kon [1]: 350000 M⁻¹ s⁻¹
Kd [2]: < 0.001 nM
koff [2]: < 1e-07 s⁻¹
kon [2]: 399000 M⁻¹ s⁻¹
IC50, cellular LDL uptake assay (HepG2 cells, Dil-LDL, 20 µg/ml human PCSK9) [3]: 6.12 nM

B2: monoclonal antibody 9M284 (antibody, human IgG2, lambda)
heavy: QVQLVQSGAEVKKPGSSVKVSCKASAFTFDSFGMHWVRQAPGQGLEWMGLLWSDGSGEYYADSAKGRFTISRDNSKNTLYLQMNSLRSDDTAVYYCARAMGAIYYYYAMDVWGQGTTVTVSSASTKGPSVFPLAPCSRSTSESTAALGCLVKDYFPEPVTVSWNSGALTSGVHTFPAVLQSSGLYSLSSVVTVPSSNFGTQTYTCNVDHKPSNTKVDKTVERKCCVECPPCPAPPVAGPSVFLFPPKPKDTLMISRTPEVTCVVVDVSHEDPEVQFNWYVDGVEVHNAKTKPREEQFNSTFRVVSVLTVVHQDWLNGKEYKCKVSNKGLPAPIEKTISKTKGQPREPQVYTLPPSREEMTKNQVSLTCLVKGFYPSDIAVEWESNGQPENNYKTTPPMLDSDGSFFLYSKLTVDKSRWQQGNVFSCSVMHEALHNHYTQKSLSLSPG
light: QSALTQPPSVSGSPGQSVTISCTGTSSNIGNQFVSWYQQLPGTAPKLMIYEYNKRPSGVPDRFSGSKSGNTASLTISGLQTGDEADYYCGSWDSSLSGYVFGTGTRVTVLGQPKAAPSVTLFPPSSEELQANKATLVCLISDFYPGAVTVAWKADSSPVKAGVETTTPSKQSNNKYAASSYLSLTPEQWKSHRSYSCQVTHEGSTVEKTVAPTECS
notes: Fully human antibody from a phage library; the claims call 24 and 26 variable regions; also called PCSK9 monoclonal antibody 9M284
Kd [4]: < 0.001 nM
koff [4]: < 1e-07 s⁻¹
kon [4]: 56000 M⁻¹ s⁻¹
EC50, cellular LDL uptake experiment [5]: 4.52 µg/mL
Kd [1]: 3 nM
koff [1]: 0.00094 s⁻¹
kon [1]: 320000 M⁻¹ s⁻¹
Kd [2]: < 0.001 nM
koff [2]: < 1e-07 s⁻¹
kon [2]: 366000 M⁻¹ s⁻¹
EC50 [6]: 71.9 µg/mL
Kd [7]: < 0.001 nM
koff [7]: < 1e-07 s⁻¹
kon [7]: 11400 M⁻¹ s⁻¹
Kd [8]: < 0.001 nM
koff [8]: < 1e-07 s⁻¹
kon [8]: 24900 M⁻¹ s⁻¹
Kd [9]: 2.4 nM
koff [9]: 8.14e-05 s⁻¹
kon [9]: 33900 M⁻¹ s⁻¹
Kd [10]: < 0.001 nM
koff [10]: < 1e-07 s⁻¹
kon [10]: 21800 M⁻¹ s⁻¹
IC50, cellular LDL uptake assay (HepG2 cells, Dil-LDL, 20 µg/ml human PCSK9) [3]: 5.75 nM

B3: monoclonal antibody 9M284QL (antibody)
heavy: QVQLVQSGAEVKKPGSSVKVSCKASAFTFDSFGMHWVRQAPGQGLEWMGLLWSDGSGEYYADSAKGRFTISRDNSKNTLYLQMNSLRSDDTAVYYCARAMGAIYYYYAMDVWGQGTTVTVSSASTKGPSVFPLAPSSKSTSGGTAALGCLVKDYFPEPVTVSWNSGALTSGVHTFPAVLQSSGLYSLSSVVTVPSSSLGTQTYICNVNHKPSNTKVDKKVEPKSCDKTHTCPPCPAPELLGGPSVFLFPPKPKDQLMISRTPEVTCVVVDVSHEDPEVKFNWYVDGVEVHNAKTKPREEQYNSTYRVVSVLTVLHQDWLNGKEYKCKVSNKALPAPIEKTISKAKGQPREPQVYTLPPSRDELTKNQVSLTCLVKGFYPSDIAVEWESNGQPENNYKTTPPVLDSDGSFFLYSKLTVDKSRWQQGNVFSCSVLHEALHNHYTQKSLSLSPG
light: B2 light
notes: also called long half-life PCSK9 monoclonal antibody 9M284-QL
Kd [4]: < 0.001 nM
koff [4]: < 1e-07 s⁻¹
kon [4]: 58500 M⁻¹ s⁻¹
fold higher kon than 9M284 [11]: 3 fold
EC50, cellular LDL uptake experiment [5]: 5.28 µg/mL
fold smaller EC50 than 9M284 [12]: 2.8 fold
EC50 [6]: 25 µg/mL
Kd [7]: < 0.001 nM
koff [7]: < 1e-07 s⁻¹
kon [7]: 36500 M⁻¹ s⁻¹
Kd [8]: < 0.001 nM
koff [8]: < 1e-07 s⁻¹
kon [8]: 26900 M⁻¹ s⁻¹
Kd [9]: 1.46 nM
koff [9]: 4.64e-05 s⁻¹
kon [9]: 31800 M⁻¹ s⁻¹
Kd [10]: < 0.001 nM
koff [10]: < 1e-07 s⁻¹
kon [10]: 29700 M⁻¹ s⁻¹

B4: monoclonal antibody 9M284YTE (antibody)
heavy: QVQLVQSGAEVKKPGSSVKVSCKASAFTFDSFGMHWVRQAPGQGLEWMGLLWSDGSGEYYADSAKGRFTISRDNSKNTLYLQMNSLRSDDTAVYYCARAMGAIYYYYAMDVWGQGTTVTVSSASTKGPSVFPLAPSSKSTSGGTAALGCLVKDYFPEPVTVSWNSGALTSGVHTFPAVLQSSGLYSLSSVVTVPSSSLGTQTYICNVNHKPSNTKVDKKVEPKSCDKTHTCPPCPAPELLGGPSVFLFPPKPKDTLYITREPEVTCVVVDVSHEDPEVKFNWYVDGVEVHNAKTKPREEQYNSTYRVVSVLTVLHQDWLNGKEYKCKVSNKALPAPIEKTISKAKGQPREPQVYTLPPSRDELTKNQVSLTCLVKGFYPSDIAVEWESNGQPENNYKTTPPVLDSDGSFFLYSKLTVDKSRWQQGNVFSCSVMHEALHNHYTQKSLSLSPG
light: B2 light
EC50, cellular LDL uptake experiment [5]: 4.36 µg/mL
fold smaller EC50 than 9M284 [12]: 2.8 fold
EC50 [6]: 24.3 µg/mL
